The values below are quoted from earlier work in PMC3461832.

For data set [1], the target named is fibrinogen Bβ chain 6-20 (Homo sapiens) (UniProt P02675).
Data set [2] concerns the target fibrinogen Bβ chain peptide β1-25 1-25 (Homo sapiens) (UniProt P02675).

Chain of UniProt P02675 (P02675 1-25): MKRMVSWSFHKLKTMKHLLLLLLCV

Consider SdrG (from UniProt Q9KI13), for which the values for the Kd in data set [1] and in data set [2] were 90 nM and 140 nM, respectively.
